Publication PMC300677

Target: isolated iron-loaded transferrin C-lobe (Fe-C-lobe)
Test: biosensor binding assay (SPR), equilibrium analysis

Kd (KD1) | ratio to parent (KD1) | Kd (KD2) | ratio to parent (KD2) | ratio to parent (KD1, KD2 relative to wild-type, single entry) | Substance
1 µM | 1.2 | 2.6 µM | 0.8 |  | soluble human transferrin receptor 1 (TfR) ectodomain, wild type (from UniProt P02786) D125K
 |  |  |  | > 1000 | soluble human transferrin receptor 1 (TfR) ectodomain, wild type (from UniProt P02786) R651A
0.8 µM | 1 | 5.7 µM | 1.7 |  | soluble human transferrin receptor 1 (TfR) ectodomain, wild type (from UniProt P02786) Y123S
1.9 µM | 2.4 | 2.7 µM | 0.8 |  | soluble human transferrin receptor 1 (TfR) ectodomain, wild type (from UniProt P02786) F760A
